The assay has as its target PLEKHO2. Put plainly: BioID in situ proximity labelling, streptavidin pulldown, mass spectrometry (LFQ). As to conditions: U937 stable cell lines; biotin 24 h; n=3; read off a plot.

In turn, “BirA*–MYO1F tail (from UniProt O00160) K770A; R780A” came in with an enrichment of 5.2.

Values taken from paper PMC12772958.
